Reference: paper PMC9996972

Biological target: αVβ3 integrin (rat (endogenous in primary astrocytes)) (UniProt Q8R2H2)
Chain of UniProt Q8R2H2 (Q8R2H2 whole entry, looked up): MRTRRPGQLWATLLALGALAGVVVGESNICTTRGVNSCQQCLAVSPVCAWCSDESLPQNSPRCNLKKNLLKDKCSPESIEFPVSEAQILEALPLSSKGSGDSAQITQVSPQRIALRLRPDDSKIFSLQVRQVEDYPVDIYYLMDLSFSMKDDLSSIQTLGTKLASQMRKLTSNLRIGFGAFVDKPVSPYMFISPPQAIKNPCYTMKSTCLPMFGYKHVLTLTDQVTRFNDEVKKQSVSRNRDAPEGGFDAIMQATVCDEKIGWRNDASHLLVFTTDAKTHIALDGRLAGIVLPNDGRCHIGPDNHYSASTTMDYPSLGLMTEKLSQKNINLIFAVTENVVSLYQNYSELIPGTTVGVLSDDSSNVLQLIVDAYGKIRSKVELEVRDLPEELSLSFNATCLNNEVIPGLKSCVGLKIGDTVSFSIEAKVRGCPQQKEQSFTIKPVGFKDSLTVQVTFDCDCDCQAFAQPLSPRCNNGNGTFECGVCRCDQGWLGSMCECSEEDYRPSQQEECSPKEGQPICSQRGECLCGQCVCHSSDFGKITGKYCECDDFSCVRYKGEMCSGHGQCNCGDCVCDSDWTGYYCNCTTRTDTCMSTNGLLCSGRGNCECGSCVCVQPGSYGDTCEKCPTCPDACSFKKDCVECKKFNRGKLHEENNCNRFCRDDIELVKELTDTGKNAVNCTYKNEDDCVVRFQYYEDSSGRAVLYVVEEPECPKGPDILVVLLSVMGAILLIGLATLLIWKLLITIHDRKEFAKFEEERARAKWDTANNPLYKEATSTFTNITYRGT

wound closure (migration) of primary astrocytes pretreated with Hp OMVs (2.5 µg/ml, 12 h), then stimulated with Thy-1-Fc/Protein-A for 24 h: 25% | wound closure (migration) of primary astrocytes pretreated with TNF (10 ng/ml, 48 h), then stimulated with Thy-1-Fc/Protein-A for 24 h: 10%
B1: Thy-1-Fc fusion protein (Fc fusion)
chain: QKVTSLTACLVNQNLRLDCRHENNTKDNSIQHEFSLTREKRKHVLSGTLGIPEHTYRSRVTLSNQPYIKVLTLANFTTKDEGDYFCELQVSGANPMSSNKSISVYRDKLVKC
